Results published in publication PMC7383930 (Journal of Medicinal Chemistry, 2020).

Assays:
[1] = target: PSMA on PC3-PIP (PSMA+) prostate cancer cells (Homo sapiens, UniProt Q04609); assay: cell-based or functional assay
[2] = target: purified extracellular domain of PSMA (prostate-specific membrane antigen), residues 44–750 (human, UniProt Q04609); assay: SPR; ProteOn XPR36 chip; each NB (0.2 μg) immobilised by amine coupling (sulfo-NHS/EDC, 10 mM sodium acetate pH 5.0); soluble PSMA flowed at 25 μL/min (25-3200 pM for NB7; 2.94-47.00 nM for NB8, NB13, NB37); dissociation in PBST (0.005% Tween); BSA surface subtracted; Langmuir 1:1 kinetic model; 25 °C; conditions: both partners purified
Chain of purified extracellular domain of PSMA (prostate-specific membrane antigen), residues 44–750 (Q04609 44-750): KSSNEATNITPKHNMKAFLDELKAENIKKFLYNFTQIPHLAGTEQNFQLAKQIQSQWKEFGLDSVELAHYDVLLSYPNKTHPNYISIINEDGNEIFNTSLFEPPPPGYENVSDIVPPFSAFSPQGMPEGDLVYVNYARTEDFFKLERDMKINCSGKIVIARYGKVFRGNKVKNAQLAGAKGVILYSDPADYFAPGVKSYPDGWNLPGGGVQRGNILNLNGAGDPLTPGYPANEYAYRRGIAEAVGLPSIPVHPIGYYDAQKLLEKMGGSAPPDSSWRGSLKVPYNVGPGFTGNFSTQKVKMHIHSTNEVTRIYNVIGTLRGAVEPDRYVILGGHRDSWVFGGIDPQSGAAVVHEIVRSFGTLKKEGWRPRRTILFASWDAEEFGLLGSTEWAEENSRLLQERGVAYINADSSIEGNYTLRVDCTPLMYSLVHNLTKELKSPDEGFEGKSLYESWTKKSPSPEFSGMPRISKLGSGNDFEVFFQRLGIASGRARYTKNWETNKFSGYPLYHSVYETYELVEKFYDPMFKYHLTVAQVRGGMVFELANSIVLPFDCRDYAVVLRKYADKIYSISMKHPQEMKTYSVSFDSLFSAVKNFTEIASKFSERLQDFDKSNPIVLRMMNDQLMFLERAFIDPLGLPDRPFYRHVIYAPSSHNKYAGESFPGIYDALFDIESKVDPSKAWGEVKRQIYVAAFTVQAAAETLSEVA

Chain of PSMA on PC3-PIP (PSMA+) prostate cancer cells (Q04609 whole entry, the tested form may be a part): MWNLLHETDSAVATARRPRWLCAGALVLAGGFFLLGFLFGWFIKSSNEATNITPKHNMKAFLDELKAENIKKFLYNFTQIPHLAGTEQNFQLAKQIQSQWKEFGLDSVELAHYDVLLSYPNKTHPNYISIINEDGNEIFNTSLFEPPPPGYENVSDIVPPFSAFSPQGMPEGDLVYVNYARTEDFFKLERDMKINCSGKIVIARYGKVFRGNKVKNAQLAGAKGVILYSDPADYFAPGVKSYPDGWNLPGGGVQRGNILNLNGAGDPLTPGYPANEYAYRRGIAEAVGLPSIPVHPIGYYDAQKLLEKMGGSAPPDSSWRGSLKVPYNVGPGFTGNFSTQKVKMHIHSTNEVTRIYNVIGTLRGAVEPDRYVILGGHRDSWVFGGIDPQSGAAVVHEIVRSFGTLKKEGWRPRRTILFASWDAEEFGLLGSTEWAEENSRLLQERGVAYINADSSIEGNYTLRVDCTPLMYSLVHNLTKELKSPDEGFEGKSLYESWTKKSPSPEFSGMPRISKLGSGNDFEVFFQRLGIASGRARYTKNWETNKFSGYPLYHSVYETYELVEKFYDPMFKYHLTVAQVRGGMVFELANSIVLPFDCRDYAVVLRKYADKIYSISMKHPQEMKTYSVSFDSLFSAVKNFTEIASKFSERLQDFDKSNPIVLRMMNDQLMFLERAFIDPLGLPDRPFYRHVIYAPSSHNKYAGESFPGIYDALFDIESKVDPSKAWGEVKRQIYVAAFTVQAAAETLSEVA

B1: NB37 (VHH)
VHH: QVQLQESGGGSVEAGGSLRLSCARSGWPYSTYSMNWFRQAPGKEREAVAGISSTMSGIIFAESKAGQFTISQDNAKNTVYLQMNNLKPEDTAIYYCAARRDYSLSSSSDDFDYWGQGTQVTVSS
Question: For B1, which “whole-body NIR imaging of mice with PC3-PIP xenografts, AF680-labelled NB: duration until the fluorescent signal was no longer detected” value [1] is on record?
Answer: 24 h

Question: What about the Kd [2] of the same binder?
Answer: 3.4 nM

Question: And the koff [2]?
Answer: 7.5e-05 s⁻¹

Question: What about the kon [2] of the same binder?
Answer: 22000 M⁻¹ s⁻¹

B2: NB8 (VHH)
VHH: QVQLQESGGGSVQAGGSLRLSCARSGWPYSTYSMNWFRQAPGKEREAVAGISSTMSGIIFAESKAGQFTISQDNAKNTVYLQMNNLKPEDTAIYYCAARRDYSLSSSSDDFDYWGQGTQVTVSS
Question: Which results are given for B2?
Answer: whole-body NIR imaging of mice with PC3-PIP xenografts, AF680-labelled NB: duration until the fluorescent signal was no longer detected [1]: 32 h; Kd [2]: 6 nM; koff [2]: 0.00012 s⁻¹; kon [2]: 20000 M⁻¹ s⁻¹

B3: NB13 (VHH)
VHH: QVQLQESGGGSVQTGGSLRLSCAASGYTASFSWIGYFRQAPGKEREGVAVINVGVGSTYYADSVKGRFTISRDNTENTISLEMNSLKPEDTGLYYCAGSLRWSRPPNPISEDAYNYWGQGTQVTVSS
Question: Which results are given for B3?
Answer: whole-body NIR imaging of mice with PC3-PIP xenografts, AF680-labelled NB: duration until the fluorescent signal was no longer detected [1]: 32 h; Kd [2]: 0.6 nM; koff [2]: 2.2e-05 s⁻¹; kon [2]: 36000 M⁻¹ s⁻¹

B4: NB7 (VHH)
VHH: QVQLQESGGGSVQAGGSLRLSCTAPGYTDSNYYMSWFRQAPGKEREWVAGVNTGRGSTSYADSVKGRFTISQDNAKNTMFLQMNSLKPEDTAIYYCAVAACHFCDSLPKTQDEYILWGQGTQVTVSS
Question: Which results are given for B4?
Answer: Kd [2]: 0.055 nM; koff [2]: 3.9e-05 s⁻¹; kon [2]: 710000 M⁻¹ s⁻¹
